Test results published in patent US20240270846A1 (published 2024).

Each binder was assayed against T1, CD3 epsilon homodimer protein (UniProt P07766 23-126) (assay: SPR Biacore T200, antibody over immobilised CD3e homodimer;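 further: CD3 epsilon homodimer amine-coupled on a CM4 chip, run at 25 °C in HBS-EP+, Z = bound amount of each single-residue H chain variant over that of the parent antibody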).
T1 construct: also called CD3 (CD3 epsilon)
T1 sequence (P07766 23-126): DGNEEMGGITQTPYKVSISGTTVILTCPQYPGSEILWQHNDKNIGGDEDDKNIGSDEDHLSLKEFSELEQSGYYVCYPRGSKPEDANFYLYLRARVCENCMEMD
Protocol: An appropriate amount of CD3 epsilon homodimer protein was immobilized onto Sensor chip CM4 (GE Healthcare Japan Corp.) by the amine coupling method. Then, the antibody having an appropriate concentration was injected thereto as an analyte and allowed to interact with the CD3 epsilon homodimer protein on the sensor chip. Then, the sensor chip was regenerated by the injection of 10 mmol/L glycine-HCl (pH 1.5). The assay was conducted at 25 degrees C., and HBS-EP+(GE Healthcare Japan Corp.) was used as a running buffer. […] Each parameter was calculated using Biacore T200 Evaluation Software (GE Healthcare Japan Corp.).
Specifically, when the amount of the antibody comprising CE115HA000 bound was defined as X and the amount of the H chain one-amino acid altered form bound was defined as Y, a value of Z (ratio of amounts bound)=Y/X was used.

Row | Binder | ratio of amounts bound (Z=Y/X vs CE115HA000)
1 | CE115HA000 N54D one-arm antibody (antibody, human IgG1, kappa, L234A L235A, N297A, name in Kabat numbering, one-arm antibody) heavy: QVQLVESGGGVVQPGRSLRLSCAASGFTFSNAWMHWVRQAPGKGLEWVAQIKAKSNDYATYYAESVKGRFTISRDDSKNSLYLQMNSLKTEDTAVYYCRYVHYGAYYGVDAWGQGTTVTVSSASTKGPSVFPLAPSSKSTSGGTAALGCLVKDYFPEPVTVSWNSGALTSGVHTFPAVLQSSGLYSLSSVVTVPSSSLGTQTYICNVNHKPSNTKVDKKVEPKSCDKTHTCPPCPAPEAAGGPSVFLFPPKPKDTLMISRTPEVTCVVVDVSHEDPEVKFNWYVDGVEVHNAKTKPREEQYASTYRVVSVLTVLHQDWLNGKEYKCKVSNKALPAPIEKTISKAKGQPREPQVYTLPPSRCELTKNQVSLSCAVKGFYPSDIAVEWESNGQPENNYKTTPPVLDSDGSFFLVSKLTVDKSRWQQGNVFSCSVMHEALHNHYTQKSLSLSPDYKDDDDK EPKSSDKTHTCPPCPAPELLGGPSVFLFPPKPKDTLMISRTPEVTCVVVDVSHEDPEVKFNWYVDGVEVHNAKTKPREEQYNSTYRVVSVLTVLHQDWLNGKEYKCKVSNKALPAPIEKTISKAKGQPREPQVCTLPPSRDELTKNQVSLWCLVKGFYPSDIAVEWESNGQPENNYKTTPPVLDSDGSFFLYSKLTVDKSRWQQGNVFSCSVMHEALHNRYTQKSLSLSP light: DIVMTQSPLSLPVTPGEPASISCRSSQSLVHSNRNTYLHWYQQKPGQAPRLLIYKVSNRFSGVPDRFSGSGSGTDFTLKISRVEAEDVGVYYCGQGTQVPYTFGQGTKLEIKRTVAAPSVFIFPPSDEQLKSGTASVVCLLNNFYPREAKVQWKVDNALQSGNSQESVTEQDSKDSTYSLSSTLTLSKADYEKHKVYACEVTHQGLSSPVTKSFNRGEC | 0.62
2 | CE115HA000 N54F one-arm antibody (antibody, human IgG1, kappa, L234A L235A, N297A, name in Kabat numbering, one-arm antibody) heavy: QVQLVESGGGVVQPGRSLRLSCAASGFTFSNAWMHWVRQAPGKGLEWVAQIKAKSNFYATYYAESVKGRFTISRDDSKNSLYLQMNSLKTEDTAVYYCRYVHYGAYYGVDAWGQGTTVTVSSASTKGPSVFPLAPSSKSTSGGTAALGCLVKDYFPEPVTVSWNSGALTSGVHTFPAVLQSSGLYSLSSVVTVPSSSLGTQTYICNVNHKPSNTKVDKKVEPKSCDKTHTCPPCPAPEAAGGPSVFLFPPKPKDTLMISRTPEVTCVVVDVSHEDPEVKFNWYVDGVEVHNAKTKPREEQYASTYRVVSVLTVLHQDWLNGKEYKCKVSNKALPAPIEKTISKAKGQPREPQVYTLPPSRCELTKNQVSLSCAVKGFYPSDIAVEWESNGQPENNYKTTPPVLDSDGSFFLVSKLTVDKSRWQQGNVFSCSVMHEALHNHYTQKSLSLSPDYKDDDDK EPKSSDKTHTCPPCPAPELLGGPSVFLFPPKPKDTLMISRTPEVTCVVVDVSHEDPEVKFNWYVDGVEVHNAKTKPREEQYNSTYRVVSVLTVLHQDWLNGKEYKCKVSNKALPAPIEKTISKAKGQPREPQVCTLPPSRDELTKNQVSLWCLVKGFYPSDIAVEWESNGQPENNYKTTPPVLDSDGSFFLYSKLTVDKSRWQQGNVFSCSVMHEALHNRYTQKSLSLSP light: DIVMTQSPLSLPVTPGEPASISCRSSQSLVHSNRNTYLHWYQQKPGQAPRLLIYKVSNRFSGVPDRFSGSGSGTDFTLKISRVEAEDVGVYYCGQGTQVPYTFGQGTKLEIKRTVAAPSVFIFPPSDEQLKSGTASVVCLLNNFYPREAKVQWKVDNALQSGNSQESVTEQDSKDSTYSLSSTLTLSKADYEKHKVYACEVTHQGLSSPVTKSFNRGEC | 1.12
3 | CE115HA000 N54G one-arm antibody (antibody, human IgG1, kappa, L234A L235A, N297A, name in Kabat numbering, one-arm antibody) heavy: QVQLVESGGGVVQPGRSLRLSCAASGFTFSNAWMHWVRQAPGKGLEWVAQIKAKSNGYATYYAESVKGRFTISRDDSKNSLYLQMNSLKTEDTAVYYCRYVHYGAYYGVDAWGQGTTVTVSSASTKGPSVFPLAPSSKSTSGGTAALGCLVKDYFPEPVTVSWNSGALTSGVHTFPAVLQSSGLYSLSSVVTVPSSSLGTQTYICNVNHKPSNTKVDKKVEPKSCDKTHTCPPCPAPEAAGGPSVFLFPPKPKDTLMISRTPEVTCVVVDVSHEDPEVKFNWYVDGVEVHNAKTKPREEQYASTYRVVSVLTVLHQDWLNGKEYKCKVSNKALPAPIEKTISKAKGQPREPQVYTLPPSRCELTKNQVSLSCAVKGFYPSDIAVEWESNGQPENNYKTTPPVLDSDGSFFLVSKLTVDKSRWQQGNVFSCSVMHEALHNHYTQKSLSLSPDYKDDDDK EPKSSDKTHTCPPCPAPELLGGPSVFLFPPKPKDTLMISRTPEVTCVVVDVSHEDPEVKFNWYVDGVEVHNAKTKPREEQYNSTYRVVSVLTVLHQDWLNGKEYKCKVSNKALPAPIEKTISKAKGQPREPQVCTLPPSRDELTKNQVSLWCLVKGFYPSDIAVEWESNGQPENNYKTTPPVLDSDGSFFLYSKLTVDKSRWQQGNVFSCSVMHEALHNRYTQKSLSLSP light: DIVMTQSPLSLPVTPGEPASISCRSSQSLVHSNRNTYLHWYQQKPGQAPRLLIYKVSNRFSGVPDRFSGSGSGTDFTLKISRVEAEDVGVYYCGQGTQVPYTFGQGTKLEIKRTVAAPSVFIFPPSDEQLKSGTASVVCLLNNFYPREAKVQWKVDNALQSGNSQESVTEQDSKDSTYSLSSTLTLSKADYEKHKVYACEVTHQGLSSPVTKSFNRGEC | 0.98
4 | CE115HA000 N54K one-arm antibody (antibody, human IgG1, kappa, L234A L235A, N297A, name in Kabat numbering, one-arm antibody) heavy: QVQLVESGGGVVQPGRSLRLSCAASGFTFSNAWMHWVRQAPGKGLEWVAQIKAKSNKYATYYAESVKGRFTISRDDSKNSLYLQMNSLKTEDTAVYYCRYVHYGAYYGVDAWGQGTTVTVSSASTKGPSVFPLAPSSKSTSGGTAALGCLVKDYFPEPVTVSWNSGALTSGVHTFPAVLQSSGLYSLSSVVTVPSSSLGTQTYICNVNHKPSNTKVDKKVEPKSCDKTHTCPPCPAPEAAGGPSVFLFPPKPKDTLMISRTPEVTCVVVDVSHEDPEVKFNWYVDGVEVHNAKTKPREEQYASTYRVVSVLTVLHQDWLNGKEYKCKVSNKALPAPIEKTISKAKGQPREPQVYTLPPSRCELTKNQVSLSCAVKGFYPSDIAVEWESNGQPENNYKTTPPVLDSDGSFFLVSKLTVDKSRWQQGNVFSCSVMHEALHNHYTQKSLSLSPDYKDDDDK EPKSSDKTHTCPPCPAPELLGGPSVFLFPPKPKDTLMISRTPEVTCVVVDVSHEDPEVKFNWYVDGVEVHNAKTKPREEQYNSTYRVVSVLTVLHQDWLNGKEYKCKVSNKALPAPIEKTISKAKGQPREPQVCTLPPSRDELTKNQVSLWCLVKGFYPSDIAVEWESNGQPENNYKTTPPVLDSDGSFFLYSKLTVDKSRWQQGNVFSCSVMHEALHNRYTQKSLSLSP light: DIVMTQSPLSLPVTPGEPASISCRSSQSLVHSNRNTYLHWYQQKPGQAPRLLIYKVSNRFSGVPDRFSGSGSGTDFTLKISRVEAEDVGVYYCGQGTQVPYTFGQGTKLEIKRTVAAPSVFIFPPSDEQLKSGTASVVCLLNNFYPREAKVQWKVDNALQSGNSQESVTEQDSKDSTYSLSSTLTLSKADYEKHKVYACEVTHQGLSSPVTKSFNRGEC | 1.2
5 | CE115HA000 Q50A one-arm antibody (antibody, human IgG1, kappa, L234A L235A, N297A, name in Kabat numbering, one-arm antibody) heavy: QVQLVESGGGVVQPGRSLRLSCAASGFTFSNAWMHWVRQAPGKGLEWVAAIKAKSNNYATYYAESVKGRFTISRDDSKNSLYLQMNSLKTEDTAVYYCRYVHYGAYYGVDAWGQGTTVTVSSASTKGPSVFPLAPSSKSTSGGTAALGCLVKDYFPEPVTVSWNSGALTSGVHTFPAVLQSSGLYSLSSVVTVPSSSLGTQTYICNVNHKPSNTKVDKKVEPKSCDKTHTCPPCPAPEAAGGPSVFLFPPKPKDTLMISRTPEVTCVVVDVSHEDPEVKFNWYVDGVEVHNAKTKPREEQYASTYRVVSVLTVLHQDWLNGKEYKCKVSNKALPAPIEKTISKAKGQPREPQVYTLPPSRCELTKNQVSLSCAVKGFYPSDIAVEWESNGQPENNYKTTPPVLDSDGSFFLVSKLTVDKSRWQQGNVFSCSVMHEALHNHYTQKSLSLSPDYKDDDDK EPKSSDKTHTCPPCPAPELLGGPSVFLFPPKPKDTLMISRTPEVTCVVVDVSHEDPEVKFNWYVDGVEVHNAKTKPREEQYNSTYRVVSVLTVLHQDWLNGKEYKCKVSNKALPAPIEKTISKAKGQPREPQVCTLPPSRDELTKNQVSLWCLVKGFYPSDIAVEWESNGQPENNYKTTPPVLDSDGSFFLYSKLTVDKSRWQQGNVFSCSVMHEALHNRYTQKSLSLSP light: DIVMTQSPLSLPVTPGEPASISCRSSQSLVHSNRNTYLHWYQQKPGQAPRLLIYKVSNRFSGVPDRFSGSGSGTDFTLKISRVEAEDVGVYYCGQGTQVPYTFGQGTKLEIKRTVAAPSVFIFPPSDEQLKSGTASVVCLLNNFYPREAKVQWKVDNALQSGNSQESVTEQDSKDSTYSLSSTLTLSKADYEKHKVYACEVTHQGLSSPVTKSFNRGEC | 0.24
6 | CE115HA000 Q50D one-arm antibody (antibody, human IgG1, kappa, L234A L235A, N297A, name in Kabat numbering, one-arm antibody) heavy: QVQLVESGGGVVQPGRSLRLSCAASGFTFSNAWMHWVRQAPGKGLEWVADIKAKSNNYATYYAESVKGRFTISRDDSKNSLYLQMNSLKTEDTAVYYCRYVHYGAYYGVDAWGQGTTVTVSSASTKGPSVFPLAPSSKSTSGGTAALGCLVKDYFPEPVTVSWNSGALTSGVHTFPAVLQSSGLYSLSSVVTVPSSSLGTQTYICNVNHKPSNTKVDKKVEPKSCDKTHTCPPCPAPEAAGGPSVFLFPPKPKDTLMISRTPEVTCVVVDVSHEDPEVKFNWYVDGVEVHNAKTKPREEQYASTYRVVSVLTVLHQDWLNGKEYKCKVSNKALPAPIEKTISKAKGQPREPQVYTLPPSRCELTKNQVSLSCAVKGFYPSDIAVEWESNGQPENNYKTTPPVLDSDGSFFLVSKLTVDKSRWQQGNVFSCSVMHEALHNHYTQKSLSLSPDYKDDDDK EPKSSDKTHTCPPCPAPELLGGPSVFLFPPKPKDTLMISRTPEVTCVVVDVSHEDPEVKFNWYVDGVEVHNAKTKPREEQYNSTYRVVSVLTVLHQDWLNGKEYKCKVSNKALPAPIEKTISKAKGQPREPQVCTLPPSRDELTKNQVSLWCLVKGFYPSDIAVEWESNGQPENNYKTTPPVLDSDGSFFLYSKLTVDKSRWQQGNVFSCSVMHEALHNRYTQKSLSLSP light: DIVMTQSPLSLPVTPGEPASISCRSSQSLVHSNRNTYLHWYQQKPGQAPRLLIYKVSNRFSGVPDRFSGSGSGTDFTLKISRVEAEDVGVYYCGQGTQVPYTFGQGTKLEIKRTVAAPSVFIFPPSDEQLKSGTASVVCLLNNFYPREAKVQWKVDNALQSGNSQESVTEQDSKDSTYSLSSTLTLSKADYEKHKVYACEVTHQGLSSPVTKSFNRGEC | 0.27
